Assays:
hPD-1 on CHO cells [1] = target: T1, hPD-1 on CHO cells (human, UniProt Q15116); assay: cell-based or functional assay
hPD-1 on CHO cells [2] = target: T1, hPD-1 on CHO cells; assay: flow cytometry on cells; competition: PD-1-expressing CHO-S cells with serial dilutions of anti-PD-1 at 4 °C for 15 min, then human Fc (IgG1)-labeled PD-L1 at 4 °C for 1 h in PBS/2% BSA; bound PD-L1 detected with PE anti-human IgG1/3; conditions: one partner purified
mPD-1 on CHO cells = target: T2, mPD-1 on CHO cells (mouse, UniProt Q02242); assay: as above; conditions: one partner purified
T2 construct: also called mPD-1-expressing CHO cells; cellular mPD-1; source: CHO cells, stably transfected (pCMV3 vector), on cells
T2 sequence (Q02242 25-288): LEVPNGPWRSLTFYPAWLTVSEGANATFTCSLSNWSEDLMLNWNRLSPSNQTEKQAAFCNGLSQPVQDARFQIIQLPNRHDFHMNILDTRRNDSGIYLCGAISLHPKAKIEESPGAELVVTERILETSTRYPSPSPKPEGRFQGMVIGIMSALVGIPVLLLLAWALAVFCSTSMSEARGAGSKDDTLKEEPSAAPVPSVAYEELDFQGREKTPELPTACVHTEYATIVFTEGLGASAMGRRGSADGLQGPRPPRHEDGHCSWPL

[3] = target: T3, hPD-1 P130A on HEK293T cells (Homo sapiens, UniProt Q15116, P130A); assay: flow cytometry on cells; shotgun mutagenesis alanine scan (Integral Molecular): hPD-1 wild type or mutants transiently expressed in HEK293 T cells, incubated with antibody, Alexa Fluor 488 secondary antibody; non-blocking control anti-PD-1 as reference; conditions: one partner purified
T3 construct: programmed cell death 1 (PD-1), human, alanine mutant of the shotgun mutagenesis library; source: HEK293 T cells, transiently transfected, on cells
T3 sequence (Q15116 25-288 P130A): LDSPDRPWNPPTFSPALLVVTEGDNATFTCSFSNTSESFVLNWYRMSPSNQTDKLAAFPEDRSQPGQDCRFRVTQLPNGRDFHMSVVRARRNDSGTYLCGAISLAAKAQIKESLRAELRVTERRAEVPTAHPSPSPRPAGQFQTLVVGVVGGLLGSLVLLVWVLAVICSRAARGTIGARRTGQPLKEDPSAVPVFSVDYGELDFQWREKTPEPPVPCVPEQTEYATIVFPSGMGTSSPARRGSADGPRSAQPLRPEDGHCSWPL

[4] = target: T4, hPD-1 L128A on HEK293T cells (Homo sapiens, UniProt Q15116, L128A); assay: as above; conditions: one partner purified
T4 construct: programmed cell death 1 (PD-1), human, alanine mutant of the shotgun mutagenesis library; source: HEK293 T cells, transiently transfected, on cells
T4 sequence (Q15116 25-288 L128A): as the sequence (Q15116 25-288 P130A) above, with L104A, A106P counted along it

[5] = target: T5, hPD-1 I126A on HEK293T cells (Homo sapiens, UniProt Q15116, I126A); assay: as above; conditions: one partner purified
T5 construct: programmed cell death 1 (PD-1), human, alanine mutant of the shotgun mutagenesis library; source: HEK293 T cells, transiently transfected, on cells
T5 sequence (Q15116 25-288 I126A): as the sequence (Q15116 25-288 P130A) above, with I102A, A106P counted along it

T1 sequence (Q15116 25-288): as the sequence (Q15116 25-288 P130A) above, with A106P counted along it

B1: GNUV201 (antibody, V domains shown)
VH: QVQLVQSGAEVKKPGASVKVSCKASGYTFTGYWMHWVRQAPGQGLEWIGMIHPNSDTTTYNEKFKNRVTMTRDTSISTAYMELSRLRSDDTAVYYCAGTDQAAWFAFWGQGTTVTVSS
VL: DIVMTQTPLSLSVTPGQPASISCRSSQNIVHSQGDTYLEWYLQKPGQSPQLLIYKVSKRFSGVPDRFSGSGSGTDFTLKISRVEAEDVGVYYCFQGSHVPWTFGGGTKVEIK
notes: humanized VH: CDRs of mouse clone 1G1 grafted into human IgG framework, with select point mutations; human IgG4 heavy chain constant region, hinge-stabilised S228P variant; IgG4 (S228P); the data statement says that datasets are available on request; also called humanized GNUV201; anti-PD-1; copies: 2 + 2
Question: What does the source list for B1?
Answer: reporter assay: luciferase (NFAT-RE) in Jurkat T cells expressing hPD-1 with human PD-L1 aAPC/CHO-K1 cells; IC50 of blocking hPD-1/hPD-L1 (hPD-1 on CHO cells [1]): 6.3 nM; IC50 (hPD-1 on CHO cells [2]): 9.9 nM; IC50 (mPD-1 on CHO cells): 6.7 nM; percent of WT PD-1 control binding [3]: 19.5%; percent of WT PD-1 control binding [4]: 38.5%; percent of WT PD-1 control binding [5]: 46.6%
